Laboratory results: patent US11325966

Key:
Test in all cases: cell-based or functional assay
[1] = target: HIV-1 Env of pseudovirus CAP45.2.00.G3 (HIV-1)
[2] = target: HIV-1 Env of pseudovirus 191955_A11 (HIV-1)
[3] = target: HIV-1 Env of pseudovirus CAP210.2.00.E8 (HIV-1)
[4] = target: HIV-1 Env of pseudovirus QH0692.42 (HIV-1)
[5] = target: HIV-1 Env of pseudovirus Ce703010054_2A2 (HIV-1)
[6] = target: HIV-1 Env of pseudovirus 211-9 (HIV-1)
[7] = target: HIV-1 Env of pseudovirus CNE5 (HIV-1)
[8] = target: HIV-1 Env of pseudovirus 235-47 (HIV-1)
[9] = target: HIV-1 Env of pseudovirus ZM247v1(Rev-) (HIV-1)
[10] = target: HIV-1 Env of pseudovirus Du422.1 (HIV-1)
[11] = target: HIV-1 Env of pseudovirus 6041.v3.c23 (HIV-1)
[12] = target: HIV-1 Env of pseudovirus CNE21 (HIV-1)
[13] = target: HIV-1 Env of pseudovirus Q842.d12 (HIV-1)
[14] = target: HIV-1 Env of pseudovirus T250-4 (HIV-1)
[15] = target: HIV-1 Env of pseudovirus Ce2060_G9 (HIV-1)
[16] = target: HIV-1 Env of pseudovirus 263-8 (HIV-1)
[17] = target: HIV-1 Env of pseudovirus 3365.v2.c2 (HIV-1)
[18] = target: HIV-1 Env of pseudovirus HIV-16055-2.3 (HIV-1)
[19] = target: HIV-1 Env of pseudovirus BJOX010000.06.2 (HIV-1)
[20] = target: HIV-1 Env of pseudovirus WITO4160.33 (HIV-1)
[21] = target: HIV-1 Env of pseudovirus P1981_C5_3 (HIV-1)
[22] = target: HIV-1 Env of pseudovirus ZM214M.PL15 (HIV-1)
[23] = target: HIV-1 Env of pseudovirus 246F C1G (HIV-1)
[24] = target: HIV-1 Env of pseudovirus Ce0393_C3 (HIV-1)
[25] = target: HIV-1 Env of pseudovirus 1054_07_TC4_1499 (HIV-1)
[26] = target: HIV-1 Env of pseudovirus X2088_c9 (HIV-1)
[27] = target: HIV-1 Env of pseudovirus BJOX009000.02.4 (HIV-1)
[28] = target: HIV-1 Env of pseudovirus ZM53M.PB12 (HIV-1)
[29] = target: HIV-1 Env of pseudovirus Ce1086_B2 (HIV-1)
[30] = target: HIV-1 Env of pseudovirus ZM197M.PB7 (HIV-1)
[31] = target: HIV-1 Env of pseudovirus Du156.12 (HIV-1)
[32] = target: HIV-1 Env of pseudovirus HIV-16845-2.22 (HIV-1)
[33] = target: HIV-1 Env of pseudovirus 231966.c02 (HIV-1)
[34] = target: HIV-1 Env of pseudovirus CAAN5342.A2 (HIV-1)
[35] = target: HIV-1 Env of pseudovirus C4118.c09 (HIV-1)
[36] = target: HIV-1 Env of pseudovirus C1080.c03 (HIV-1)
[37] = target: HIV-1 Env of pseudovirus R1166.c01 (HIV-1)
[38] = target: HIV-1 Env of pseudovirus X2131_C1_B5 (HIV-1)
[39] = target: HIV-1 Env of pseudovirus AC10.0.29 (HIV-1)

B1: 10-1074 (antibody, V domains shown)
VH: QVQLQESGPGLVKPSETLSVTCSVSGDSMNNYYWTWIRQSPGKGLEWIGYISDRESATYNPSLNSRVVISRDTSKNQLSLKLNSVTPADTAVYYCATARRGQRIYGVVSFGEFFYYYSMDVWGKGTTVTVSS
VL: SYVRPLSVALGETARISCGRQALGSRAVQWYQHRPGQAPILLIYNNQDRPSGIPERFSGTPDINFGTRATLTISGVEAGDEADYYCHMWDSRSGFSWSFGGATRLTVL
IC50 in TZM-bl assay [1]: > 10 µg/mL
IC80 in TZM-bl assay [1]: > 10 µg/mL
IC50 in TZM-bl assay [2]: > 10 µg/mL
IC80 in TZM-bl assay [2]: > 10 µg/mL
IC50 in TZM-bl assay [3]: > 10 µg/mL
IC80 in TZM-bl assay [3]: > 10 µg/mL
IC50 in TZM-bl assay [4]: 0.106 µg/mL
IC80 in TZM-bl assay [4]: 0.383 µg/mL
IC50 in TZM-bl assay [5]: > 10 µg/mL
IC80 in TZM-bl assay [5]: > 10 µg/mL
IC50 in TZM-bl assay [6]: 0.065 µg/mL
IC80 in TZM-bl assay [6]: 0.403 µg/mL
IC50 in TZM-bl assay [7]: > 10 µg/mL
IC80 in TZM-bl assay [7]: > 10 µg/mL
IC50 in TZM-bl assay [8]: 0.058 µg/mL
IC80 in TZM-bl assay [8]: 0.224 µg/mL
IC50 in TZM-bl assay [9]: 0.042 µg/mL
IC80 in TZM-bl assay [9]: 0.146 µg/mL
IC50 in TZM-bl assay [10]: 0.047 µg/mL
IC80 in TZM-bl assay [10]: 0.113 µg/mL
IC50 in TZM-bl assay [11]: > 10 µg/mL
IC80 in TZM-bl assay [11]: > 10 µg/mL
IC50 in TZM-bl assay [12]: 0.047 µg/mL
IC80 in TZM-bl assay [12]: 0.124 µg/mL
IC50 in TZM-bl assay [13]: > 10 µg/mL
IC80 in TZM-bl assay [13]: > 10 µg/mL
IC50 in TZM-bl assay [14]: 0.002 µg/mL
IC80 in TZM-bl assay [14]: 0.005 µg/mL
IC50 in TZM-bl assay [15]: > 10 µg/mL
IC80 in TZM-bl assay [15]: > 10 µg/mL
IC50 in TZM-bl assay [16]: 0.416 µg/mL
IC80 in TZM-bl assay [16]: 5.71 µg/mL
IC50 in TZM-bl assay [17]: 0.057 µg/mL
IC80 in TZM-bl assay [17]: 0.2 µg/mL
IC50 in TZM-bl assay [18]: > 10 µg/mL
IC80 in TZM-bl assay [18]: > 10 µg/mL
IC50 in TZM-bl assay [19]: > 10 µg/mL
IC80 in TZM-bl assay [19]: > 10 µg/mL
IC50 in TZM-bl assay [20]: 0.111 µg/mL
IC80 in TZM-bl assay [20]: 0.828 µg/mL
IC50 in TZM-bl assay [21]: 0.004 µg/mL
IC80 in TZM-bl assay [21]: 0.013 µg/mL
IC50 in TZM-bl assay [22]: 0.415 µg/mL
IC80 in TZM-bl assay [22]: 2.97 µg/mL
IC50 in TZM-bl assay [23]: 0.035 µg/mL
IC80 in TZM-bl assay [23]: 0.119 µg/mL
IC50 in TZM-bl assay [24]: > 10 µg/mL
IC80 in TZM-bl assay [24]: > 10 µg/mL
IC50 in TZM-bl assay [25]: 0.048 µg/mL
IC80 in TZM-bl assay [25]: 0.222 µg/mL
IC50 in TZM-bl assay [26]: 0.003 µg/mL
IC80 in TZM-bl assay [26]: 0.01 µg/mL
IC50 in TZM-bl assay [27]: > 10 µg/mL
IC80 in TZM-bl assay [27]: > 10 µg/mL
IC50 in TZM-bl assay [28]: > 10 µg/mL
IC80 in TZM-bl assay [28]: > 10 µg/mL
IC50 in TZM-bl assay [29]: > 10 µg/mL
IC80 in TZM-bl assay [29]: > 10 µg/mL
IC50 in TZM-bl assay [30]: > 10 µg/mL
IC80 in TZM-bl assay [30]: > 10 µg/mL
IC50 in TZM-bl assay [31]: 0.01 µg/mL
IC80 in TZM-bl assay [31]: 0.036 µg/mL
IC50 in TZM-bl assay [32]: 0.727 µg/mL
IC80 in TZM-bl assay [32]: 3.93 µg/mL
IC50 in TZM-bl assay [33]: > 10 µg/mL
IC80 in TZM-bl assay [33]: > 10 µg/mL
IC50 in TZM-bl assay [34]: 0.005 µg/mL
IC80 in TZM-bl assay [34]: 0.019 µg/mL
IC50 in TZM-bl assay [35]: > 10 µg/mL
IC80 in TZM-bl assay [35]: > 10 µg/mL
IC50 in TZM-bl assay [36]: > 10 µg/mL
IC80 in TZM-bl assay [36]: > 10 µg/mL
IC50 in TZM-bl assay [37]: > 10 µg/mL
IC80 in TZM-bl assay [37]: > 10 µg/mL
IC50 in TZM-bl assay [38]: 0.014 µg/mL
IC80 in TZM-bl assay [38]: 0.056 µg/mL
IC50 in TZM-bl assay [39]: 0.015 µg/mL
IC80 in TZM-bl assay [39]: 0.043 µg/mL
